Data set [1] deals with WalR-P (STKK1-phosphorylated WalR) (Staphylococcus aureus (ORF numbering of N315; source strain of the clone not stated)). Briefly: EMSA. To be noted: scale: fold bound/free ratio vs unphosphorylated WalR.
Data set [2] has as its target T1, STK1 (STKK1, soluble kinase domain) (Staphylococcus aureus, UniProt A0ABF7PGK0).
T1 construct: gene SA1063; His-tag-STKK1, kinase domain with part of the adjacent juxta-membrane domain (1-280 aa)
Briefly: inhibition of autophosphorylation of purified STKK1 (gamma-32P-ATP); also elution of purified STKK1 from ATP column. It counts as biochemical.

The target of data set [3] is T1, STK1 (STKK1, soluble kinase domain). Briefly: inhibition of autophosphorylation of purified STKK1 (gamma-32P-ATP); also elution of STK1 from ATP column. It counts as biochemical.

T1 sequence (A0ABF7PGK0 entry or part of it): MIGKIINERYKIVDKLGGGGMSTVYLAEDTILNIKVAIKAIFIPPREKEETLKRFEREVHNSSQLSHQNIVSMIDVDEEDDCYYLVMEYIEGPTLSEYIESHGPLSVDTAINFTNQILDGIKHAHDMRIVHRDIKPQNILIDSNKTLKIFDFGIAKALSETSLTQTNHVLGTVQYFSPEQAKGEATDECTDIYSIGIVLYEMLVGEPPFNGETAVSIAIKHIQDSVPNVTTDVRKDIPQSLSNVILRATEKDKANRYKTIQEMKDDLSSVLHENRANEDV

Regarding PSA2097 promoter probe (ssaA), the binding signal in data set [1] was above 2.

With `COC(=O)c1ccc2c(=O)[nH]c3c(C(=O)Nc4ccccc4)sc(=S)n3c2c1` [Inh2-B1, Methyl 5-oxo-3-(phenylcarbamoyl)-1-thioxo-4,5dihydro[1,3]thiazolo[3,4-a]quinazoline-8-carboxylate], the IC50 in data set [2] came to 49 µM.

Turning to PSA0710 promoter probe (lytE), the binding signal in data set [1] was above 2.

`Cc1ccc(NC(=O)c2sc(=S)n3c2[nH]c(=O)c2ccccc23)c(C)c1` [Inh2, N-(2,4-Dimethylphenyl)-5-oxo-1-thioxo-4,5-dihydro[1,3]thiazolo[3,4-a] quinazoline-3-carboxamide]: the IC50 in data set [3] worked out at 24.5 µM.

These data come from article PMC5505960, “A novel STK1-targeted small-molecule as an “antibiotic resistance breaker” against multidrug-resistant Staphylococcus aureus” (Scientific Reports, 2017).
